Results on 18 molecules are retold here after US20230416335A1.

The labels stand for the following.
B1: ImmTAC molecule a79b64 (TCR-anti-CD3 fusion) (TCR, part only; not given: anti-CD3 scFv, linker, constant regions, not shown: a dimerising Fc or GST)
TCR alpha, part: GDAKTTQPNSMESNEEEPVHLPCNHSTISGTDYIHWYRQLPSQGPEYVIHGLTSNVNNRMASLAIAEDRKSSTLILHRATLRDAAVYYCILILGHSRLGNYIATFGKGTKLSVIP
TCR beta, part: DGGITQSPKYLFRKEGQNVTLSCEQNLNHDAMYWYRQDPGQGLRLIYYSQIMNDEQKGDIAEGYSVSREKKESFPLTVTSAQKNPTAFYLCASSWWTGGSAPIRFGPGTRLTVT
B2: ImmTAC molecule a28b58 (TCR-anti-CD3 fusion) (TCR, part only; not given: anti-CD3 scFv, linker, constant regions, not shown: a dimerising Fc or GST)
TCR alpha, part: B1 TCR alpha, part with L98A
TCR beta, part: B1 TCR beta, part with N53G, A101S, R104S
B3: ImmTAC molecule a79b76 (TCR-anti-CD3 fusion) (TCR, part only; not given: anti-CD3 scFv, linker, constant regions, not shown: a dimerising Fc or GST)
TCR alpha, part: B1 TCR alpha, part
TCR beta, part: B1 TCR beta, part with N53G, A101S
B4: ImmTAC molecule a79b77 (TCR-anti-CD3 fusion) (TCR, part only; not given: anti-CD3 scFv, linker, constant regions, not shown: a dimerising Fc or GST)
TCR alpha, part: B1 TCR alpha, part
TCR beta, part: B1 TCR beta, part with N53G, S100A
B5: ImmTAC molecule a109b46 (TCR-anti-CD3 fusion) (TCR, part only; not given: anti-CD3 scFv, linker, constant regions, not shown: a dimerising Fc or GST)
TCR alpha, part: B1 TCR alpha, part with I102Q
TCR beta, part: B1 TCR beta, part with N53G
B6: ImmTAC molecule a79b74 (TCR-anti-CD3 fusion) (TCR, part only; not given: anti-CD3 scFv, linker, constant regions, part only)
TCR alpha, part: B1 TCR alpha, part
TCR beta, part: B1 TCR beta, part with N53G, S100A, A101S
B7: ImmTAC molecule a79b73 (TCR-anti-CD3 fusion) (TCR, part only; not given: anti-CD3 scFv, linker, constant regions, not shown: a dimerising Fc or GST)
TCR alpha, part: B1 TCR alpha, part
TCR beta, part: B1 TCR beta, part with N53G, S100A, R104S
B8: ImmTAC molecule a28b74 (TCR-anti-CD3 fusion) (TCR, part only; not given: anti-CD3 scFv, linker, constant regions, not shown: a dimerising Fc or GST)
TCR alpha, part: B1 TCR alpha, part with L98A
TCR beta, part: B1 TCR beta, part with N53G, S100A, A101S
B9: ImmTAC molecule a28b57 (TCR-anti-CD3 fusion) (TCR, part only; not given: anti-CD3 scFv, linker, constant regions, not shown: a dimerising Fc or GST)
TCR alpha, part: B1 TCR alpha, part with L98A
TCR beta, part: B1 TCR beta, part with N53G, G98S, S100A, A101S, R104S
B10: ImmTAC molecule a79b71 (TCR-anti-CD3 fusion) (TCR, part only; not given: anti-CD3 scFv, linker, constant regions, not shown: a dimerising Fc or GST)
TCR alpha, part: B1 TCR alpha, part
TCR beta, part: B1 TCR beta, part with N53G, R104Y
B11: ImmTAC molecule a79b75 (TCR-anti-CD3 fusion) (TCR, part only; not given: anti-CD3 scFv, linker, constant regions, not shown: a dimerising Fc or GST)
TCR alpha, part: B1 TCR alpha, part
TCR beta, part: B1 TCR beta, part with N53G, R104S
B12: ImmTAC molecule a79b58 (TCR-anti-CD3 fusion) (TCR, part only; not given: anti-CD3 scFv, linker, constant regions, not shown: a dimerising Fc or GST)
TCR alpha, part: B1 TCR alpha, part
TCR beta, part: B1 TCR beta, part with N53G, A101S, R104S
B13: ImmTAC molecule a28b75 (TCR-anti-CD3 fusion) (TCR, part only; not given: TCR constant regions and anti-CD3 scFv, not shown: a dimerising Fc or GST)
TCR alpha, part: B1 TCR alpha, part with L98A
TCR beta, part: B1 TCR beta, part with N53G, R104S
B14: ImmTAC molecule a79b63 (TCR-anti-CD3 fusion) (TCR, part only; not given: anti-CD3 scFv, linker, constant regions, not shown: a dimerising Fc or GST)
TCR alpha, part: B1 TCR alpha, part
TCR beta, part: B1 TCR beta, part with M52V, N53G
B15: ImmTAC molecule a79b67 (TCR-anti-CD3 fusion) (TCR, part only; not given: anti-CD3 scFv, linker, constant regions, not shown: a dimerising Fc or GST)
TCR alpha, part: B1 TCR alpha, part
TCR beta, part: B1 TCR beta, part with N53G, G98S
B16: ImmTAC molecule a79b69 (TCR-anti-CD3 fusion) (TCR, part only; not given: anti-CD3 scFv, linker, constant regions, not shown: a dimerising Fc or GST)
TCR alpha, part: B1 TCR alpha, part
TCR beta, part: B1 TCR beta, part with N53G, P102E
B17: ImmTAC molecule a79b66 (TCR-anti-CD3 fusion) (TCR, part only; not given: anti-CD3 scFv, linker, constant regions, not shown: a dimerising Fc or GST)
TCR alpha, part: B1 TCR alpha, part
TCR beta, part: B1 TCR beta, part with N53G, W95P
B18: ImmTAC molecule a28b60 (TCR-anti-CD3 fusion) (TCR, part only; not given: anti-CD3 scFv, linker, constant regions, not shown: a dimerising Fc or GST)
TCR alpha, part: B1 TCR alpha, part with L98A
TCR beta, part: B1 TCR beta, part with N53G, S100A, A101S, P102E, R104S

Substitutions are numbered along the chain they refer to.

The first experiment deals with … (SEQ ID NO: 1)-HLA-A*02 complex (human). Description: cell-based or functional assay.
Molecule B1 displayed an EC50 (mel624), IFN-γ ELISPOT, T cell activation of 0.0275 nM.

The molecule B2 registered an EC50 (mel624), IFN-γ ELISPOT, T cell activation of 0.012 nM.

B3 displayed an EC50 (mel624), IFN-γ ELISPOT, T cell activation of 0.0172 nM.

Take B4: the EC50 (mel624), IFN-γ ELISPOT, T cell activation is 0.0138 nM.

For the molecule B5, the EC50 (mel624), IFN-γ ELISPOT, T cell activation is 0.0601 nM.

Molecule B6 had an EC50 (mel624), IFN-γ ELISPOT, T cell activation of 0.00955 nM.

B7 registered an EC50 (mel624), IFN-γ ELISPOT, T cell activation of 0.0231 nM.

As to B8, the EC50 (mel624), IFN-γ ELISPOT, T cell activation was found to be 0.0243 nM.

For the molecule B9, the EC50 (mel624), IFN-γ ELISPOT, T cell activation was determined as 0.0134 nM.

As for B10, the EC50 (mel624), IFN-γ ELISPOT, T cell activation was 0.0318 nM.

The molecule B11 returned an EC50 (mel624), IFN-γ ELISPOT, T cell activation of 0.0236 nM.

The molecule B12 came in with an EC50 (mel624), IFN-γ ELISPOT, T cell activation of 0.0106 nM.

Consider B13, for which the EC50 (mel624), IFN-γ ELISPOT, T cell activation came to 0.0139 nM.

Take B14: the EC50 (mel624), IFN-γ ELISPOT, T cell activation was 0.0229 nM.

B15 came in with an EC50 (mel624), IFN-γ ELISPOT, T cell activation of 0.0263 nM.

In turn, B16 yielded an EC50 (mel624), IFN-γ ELISPOT, T cell activation of 0.0398 nM.

Consider B17, for which the EC50 (mel624), IFN-γ ELISPOT, T cell activation was determined as 0.0167 nM.

For the molecule B18, the EC50 (mel624), IFN-γ ELISPOT, T cell activation is 0.0317 nM.

Another experiment has the same target. Description: SPR (BIAcore) or BLI (Octet) per Example 3, immobilised biotinylated pHLA, 25 C.
On to B1, for which the Kd (in general, a measure of binding affinity in units of concentration) stood at 0.138 nM and the t1/2 was found to be 6.38 h.

In the case of B2, the Kd was 0.079 nM and the t1/2 came out at 8.9 h.

On to B3, for which the Kd came to 0.0118 nM and the t1/2 was found to be 58.3 h.

On to B4, for which the Kd was 0.0779 nM and the t1/2 came out at 8.6 h.

Molecule B5 gave a Kd of 0.17 nM and a t1/2 of 7.31 h.

B6: the Kd stood at 0.0533 nM and the t1/2 is 12.5 h.

B7 gave a Kd of 0.132 nM and a t1/2 of 4.6 h.

B8 registered a Kd of 0.182 nM and a t1/2 of 3.7 h.

In turn, B9 showed a Kd of 0.083 nM and a t1/2 of 8.3 h.

B10 came in with a Kd of 0.087 nM and a t1/2 of 14.9 h.

Take B11: the Kd came to 0.0577 nM and the t1/2 is 16.9 h.

Regarding B12, the Kd amounted to 0.0231 nM and the t1/2 was 28.7 h.

For B13, the Kd was found to be 0.214 nM and the t1/2 amounted to 5.1 h.

For the molecule B14, the dissociation constant (Kd) was 0.079 nM and the t1/2 amounted to 10.8 h.

On to B15, for which the Kd came to 0.047 nM and the t1/2 was 12.7 h.

B16 displayed a Kd of 0.052 nM and a t1/2 of 20.4 h.

The molecule B17 showed a Kd of 0.089 nM and a t1/2 of 9.16 h.

Molecule B18 yielded a Kd of 0.261 nM and a t1/2 of 2.8 h.
